In patent US20150322129A1 (Sanofi, published 2015):
Like-named read-outs stand apart in the source and are kept apart here. Numbered stars: 1 amine (or outer) side, 2 acyl side, 3 side chain; on linkers, the order of the positions; unused ones are H or OH. Square brackets hold non-standard residues; d marks the D form. Side chains are listed from the residue outwards. Ends that are not written are not given here. * marks the point of attachment. γGlu = O=C(O)[C@H](CCC(=O)[*:2])N[*:1]; Stearoyl = CCCCCCCCCCCCCCCCCC(=O)*; Palmitoyl = CCCCCCCCCCCCCCCC(=O)*; AEEA = NCCOCCOCC(=O)O; Aib = CC(C)(N)C(=O)O

T1: human GIP receptor (human, UniProt P48546 22-466)
T1 sequence (looked up): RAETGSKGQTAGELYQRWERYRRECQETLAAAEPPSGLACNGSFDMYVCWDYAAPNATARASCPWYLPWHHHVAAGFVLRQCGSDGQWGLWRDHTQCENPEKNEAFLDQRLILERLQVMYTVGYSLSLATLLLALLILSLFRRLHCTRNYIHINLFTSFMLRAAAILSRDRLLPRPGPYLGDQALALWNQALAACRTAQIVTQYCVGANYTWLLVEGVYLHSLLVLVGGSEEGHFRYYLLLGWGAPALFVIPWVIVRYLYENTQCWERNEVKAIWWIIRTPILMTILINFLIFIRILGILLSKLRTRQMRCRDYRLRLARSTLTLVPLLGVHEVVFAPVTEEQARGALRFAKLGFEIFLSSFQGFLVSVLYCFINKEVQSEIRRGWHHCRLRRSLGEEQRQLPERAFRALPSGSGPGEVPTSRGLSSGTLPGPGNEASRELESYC

B1: SEQ ID NO: 25 (peptide)
peptide: H-H[dS]HGTFTSDLSKQK([γGlu-Stearoyl])EEEAVRLFIEWLKAGGPSSGAPPPS-NH2
SMILES: CCCCCCCCCCCCCCCCCC(=O)N[C@@H](CCC(=O)NCCCC[C@H](NC(=O)[C@H](CCC(N)=O)NC(=O)[C@H](CCCCN)NC(=O)[C@H](CO)NC(=O)[C@H](CC(C)C)NC(=O)[C@H](CC(=O)O)NC(=O)[C@H](CO)NC(=O)[C@@H](NC(=O)[C@H](Cc1ccccc1)NC(=O)[C@@H](NC(=O)CNC(=O)[C@H](Cc1c[nH]cn1)NC(=O)[C@@H](CO)NC(=O)[C@@H](N)Cc1c[nH]cn1)[C@@H](C)O)[C@@H](C)O)C(=O)N[C@@H](CCC(=O)O)C(=O)N[C@@H](CCC(=O)O)C(=O)N[C@@H](CCC(=O)O)C(=O)N[C@@H](C)C(=O)N[C@H](C(=O)N[C@@H](CCCNC(=N)N)C(=O)N[C@@H](CC(C)C)C(=O)N[C@@H](Cc1ccccc1)C(=O)N[C@H](C(=O)N[C@@H](CCC(=O)O)C(=O)N[C@@H](Cc1c[nH]c2ccccc12)C(=O)N[C@@H](CC(C)C)C(=O)N[C@@H](CCCCN)C(=O)N[C@@H](C)C(=O)NCC(=O)NCC(=O)N1CCC[C@H]1C(=O)N[C@@H](CO)C(=O)N[C@@H](CO)C(=O)NCC(=O)N[C@@H](C)C(=O)N1CCC[C@H]1C(=O)N1CCC[C@H]1C(=O)N1CCC[C@H]1C(=O)N[C@@H](CO)C(N)=O)[C@@H](C)CC)C(C)C)C(=O)O
B2: SEQ ID NO: 23 (peptide)
peptide: H-H[dS]QGTFTSDLSKQK([γGlu-γGlu-Palmitoyl])DEEAVRLFIEWLKAGGPSSGAPPPS-NH2
SMILES: CCCCCCCCCCCCCCCC(=O)N[C@@H](CCC(=O)N[C@@H](CCC(=O)NCCCC[C@H](NC(=O)[C@H](CCC(N)=O)NC(=O)[C@H](CCCCN)NC(=O)[C@H](CO)NC(=O)[C@H](CC(C)C)NC(=O)[C@H](CC(=O)O)NC(=O)[C@H](CO)NC(=O)[C@@H](NC(=O)[C@H](Cc1ccccc1)NC(=O)[C@@H](NC(=O)CNC(=O)[C@H](CCC(N)=O)NC(=O)[C@@H](CO)NC(=O)[C@@H](N)Cc1c[nH]cn1)[C@@H](C)O)[C@@H](C)O)C(=O)N[C@@H](CC(=O)O)C(=O)N[C@@H](CCC(=O)O)C(=O)N[C@@H](CCC(=O)O)C(=O)N[C@@H](C)C(=O)N[C@H](C(=O)N[C@@H](CCCNC(=N)N)C(=O)N[C@@H](CC(C)C)C(=O)N[C@@H](Cc1ccccc1)C(=O)N[C@H](C(=O)N[C@@H](CCC(=O)O)C(=O)N[C@@H](Cc1c[nH]c2ccccc12)C(=O)N[C@@H](CC(C)C)C(=O)N[C@@H](CCCCN)C(=O)N[C@@H](C)C(=O)NCC(=O)NCC(=O)N1CCC[C@H]1C(=O)N[C@@H](CO)C(=O)N[C@@H](CO)C(=O)NCC(=O)N[C@@H](C)C(=O)N1CCC[C@H]1C(=O)N1CCC[C@H]1C(=O)N1CCC[C@H]1C(=O)N[C@@H](CO)C(N)=O)[C@@H](C)CC)C(C)C)C(=O)O)C(=O)O

Experiments:
Experiment in all cases: cell-based or functional assay
human GIP receptor [1] = biological target: T1, human GIP receptor
human glucagon receptor [2] = biological target: T2, human glucagon receptor (human, UniProt P47871 26-477)
human GLP-1 receptor [3] = biological target: T3, human GLP-1 receptor (human, UniProt P43220 24-463)
human GIP receptor [4] = biological target: T1, human GIP receptor; remark: listed apart in the source
human glucagon receptor [5] = biological target: T2, human glucagon receptor; remark: listed apart in the source
human GLP-1 receptor [6] = biological target: T3, human GLP-1 receptor; remark: listed apart in the source

T2 sequence (P47871 26-477): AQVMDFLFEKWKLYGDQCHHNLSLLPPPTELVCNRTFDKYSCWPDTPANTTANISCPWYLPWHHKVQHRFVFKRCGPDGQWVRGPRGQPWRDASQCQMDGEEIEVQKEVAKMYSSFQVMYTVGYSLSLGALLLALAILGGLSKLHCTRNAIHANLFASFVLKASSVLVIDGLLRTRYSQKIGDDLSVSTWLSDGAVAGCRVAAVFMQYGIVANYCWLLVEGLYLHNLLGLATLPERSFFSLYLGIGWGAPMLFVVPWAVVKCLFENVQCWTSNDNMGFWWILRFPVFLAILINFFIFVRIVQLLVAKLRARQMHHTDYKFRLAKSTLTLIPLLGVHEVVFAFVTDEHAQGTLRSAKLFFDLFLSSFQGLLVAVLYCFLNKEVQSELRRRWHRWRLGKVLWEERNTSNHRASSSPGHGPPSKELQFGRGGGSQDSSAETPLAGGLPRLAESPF

Row | Binder | EC50 hGIP-R (cAMP formation) (human GIP receptor [1]) | EC50 hGlucagon-R (cAMP formation) (human glucagon receptor [2]) | EC50 hGLP-1R (cAMP formation) (human GLP-1 receptor [3]) | EC50 hGIP-1 (cAMP formation) (human GIP receptor [4]) | EC50 hGlucagon-R (cAMP formation) (human glucagon receptor [5]) | EC50 hGLP-1R (cAMP formation) (human GLP-1 receptor [6])
1 | B1 | 407 pM | 39.9 pM | 8.1 pM | 407 pM | 39.9 pM | 8.1 pM
2 | H[dS]HGTFTSDLSKQK([γGlu-γGlu-Palmitoyl])EEEAVRLFIEWLKAGGPSSGAPPPS-NH2 [SEQ ID NO: 13] | 79 pM | 22.5 pM |  | 79 pM | 22.5 pM | 
3 | H[dS]HGTFTSDLSKQK([γGlu-Palmitoyl])EEEAVRLFIEWLKAGGPSSGAPPPS-NH2 [SEQ ID NO: 14] | 437 pM | 58.4 pM | 4.1 pM | 437 pM | 58.4 pM | 4.1 pM
4 | H[dS]HGTFTSDLSKQK(Ac)EEEAVRLFIEWLKAGGPSSGAPPPS-NH2 [SEQ ID NO: 35] |  |  |  | 4040 pM | 2860 pM | 0.4 pM
5 | H-H[Aib]HGTFTSDLSKQK([AEEA-AEEA-γGlu-Stearoyl])EEEAVRLFIEWLKAGGPSSGAPPPS-NH2 [SEQ ID NO: 28] | 17 pM | 17.1 pM | 3.8 pM |  |  | 
6 | H[Aib]HGTFTSDLSKQK([γGlu-γGlu-Palmitoyl])EEEAVRLFIEWLKAGGPSSGAPPPS-NH2 [SEQ ID NO: 11] | 7.9 pM | 8.9 pM |  | 7.9 pM | 8.9 pM | 
7 | H-H[Aib]HGTFTSDLSKQK([AEEA-AEEA-AEEA-Stearoyl])EEEAVRLFIEWLKAGGPSSGAPPPS-NH2 [SEQ ID NO: 29] | 47.6 pM | 17.9 pM | 4.7 pM |  |  | 
8 | H[Aib]HGTFTSDLSKQK([γGlu-Palmitoyl])EEEAVRLFIEWLKAGGPSSGAPPPS-NH2 [SEQ ID NO: 12] | 8.8 pM | 12.8 pM | 3.3 pM | 8.8 pM | 12.8 pM | 3.3 pM
9 | H-H[Aib]HGTFTSDLSKQK(Ac)EEEAVRLFIEWLKAGGPSSGAPPPS-NH2 [SEQ ID NO: 34] |  |  |  | 25.4 pM | 828 pM | 0.7 pM
10 | B2 | 350 pM | 124 pM | 1.2 pM |  |  | 
11 | H[Aib]HGTFTSDLSKQK([γGlu-Stearoyl])EEEAVRLFIEWLKAGGPSSGAPPPS-NH2 [SEQ ID NO: 7] | 25.6 pM | 5.8 pM | 6.5 pM | 25.6 pM | 5.8 pM | 6.5 pM
